Common to all, as to assay: direct Nesslerization (ammonia release)
For one series, the target named is T1, TsAI (Thermococcus sibiricus, UniProt C6A532, D54G/T56Q).
T1 construct: gene TSIB_1676; full-length, 331 residues, homodimer
The class given is biochemical. The note with it: 90 °C, 0.05 M Tris-HCl pH 9.0; 0.25–20 mM substrate. From the text:
(§1) direct Nesslerization (ammonia release) on TsAI

Substrate in series [1]: NC(=O)CC[C@H](N)C(=O)O
The class given is biochemical, Thermococcus sibiricus. The conditions noted are these: 90 °C, 0.05 M Tris-HCl pH 9.0, 0.25–30 mM substrate.
Text: as §1

Substrate in series [2]: NC(=O)C[C@@H](N)C(=O)O
The class given is biochemical, Thermococcus sibiricus. The conditions noted are these: 90 °C, 0.05 M Tris-HCl pH 9.0, 0.25–30 mM substrate.
Text: as §1

Substrate in series [3]: NC(=O)CC[C@@H](N)C(=O)O
The class given is biochemical, Thermococcus sibiricus. The conditions noted are these: 90 °C, 0.05 M Tris-HCl pH 9.0, 0.25–40 mM substrate.
Text: as §1

Substrate in series [4]: NC(=O)C[C@H](N)C(=O)O
The format is biochemical, Thermococcus sibiricus. The note with it: 90 °C, 0.05 M Tris-HCl pH 9.0, 0.25–20 mM substrate.
Text: as §1

In publication PMC12193700, “Hyperthermophilic L-Asparaginase from Thermococcus sibiricus and Its Double Mutant with Increased Activity: Insights into Substrate Specificity and Structure” (International Journal of Molecular Sciences, 2025) one finds Km and Vmax data, which are given here for 3 molecules.

As usually defined, the Km is the concentration of substrate that gives half-maximal velocity. Consider `NC(=O)C[C@H](N)C(=O)O` [L-asparagine], for which, at TsAI, the Km was 6.03 ± 0.15 mM.

B1: TsAI (Thermococcus sibiricus MM 739) (protein)
chain: MKKLLIIGTGGTIASAKTEQGYKSVLKIDEILKLAKIKLENGYKIDSTNIMNIDSTLIHPEDWEIIAKEVFKALDDYDGIIITHGTDTLAYTASMLSFMIKNPNKPIVLTGSMLPITENGSDAPRNIRTAIKFAMEDVAGVFVAFMDKIMLGCRTSKVRTLGLNAFMSINYPDVAYVKGEKILYNIPKEKFQPNGSPELDTKYEPRVVVLRVTPGLGGEIIDAVLDAGYKGIVLEGYGAGGLPYRKSNLLSKIKEITPKIPVIMTTQALYDGVDMRKYEVGRKALETGIIPAKDMTKEATITKLMWALGHTKDVEKIREIMHTNYVNEIKS
notes: full-length, 331 residues, homodimer
Broadly, the Vmax is the top rate of the reaction or transport when substrate is in excess. As to B1, the Michaelis constant (Km) in series [1] stood at 11.09 ± 0.25 mM; in series [2] it was 8.63 ± 0.48 mM; in series [3], 13.86 ± 0.86 mM; in series [4] it was 3.10 ± 0.15 mM. In addition, the Vmax was 280 µM/min in series [1], 660 µM/min in series [2], 180 µM/min in series [3] and 4020 µM/min in series [4].

B2: TsAI (Thermococcus sibiricus MM 739; D54G/T56Q) (protein)
chain: MKKLLIIGTGGTIASAKTEQGYKSVLKIDEILKLAKIKLENGYKIDSTNIMNIGSQLIHPEDWEIIAKEVFKALDDYDGIIITHGTDTLAYTASMLSFMIKNPNKPIVLTGSMLPITENGSDAPRNIRTAIKFAMEDVAGVFVAFMDKIMLGCRTSKVRTLGLNAFMSINYPDVAYVKGEKILYNIPKEKFQPNGSPELDTKYEPRVVVLRVTPGLGGEIIDAVLDAGYKGIVLEGYGAGGLPYRKSNLLSKIKEITPKIPVIMTTQALYDGVDMRKYEVGRKALETGIIPAKDMTKEATITKLMWALGHTKDVEKIREIMHTNYVNEIKS
notes: as for B1
With B2, the Km in series [1] stood at 11.41 ± 0.27 mM; in series [2] it was 9.18 ± 0.86 mM; in series [3], 14.40 ± 1.60 mM. Further, the Vmax was 250 µM/min in series [1], 590 µM/min in series [2] and 180 µM/min in series [3].
